Measured values as given in article PMC12177037 (Communications Biology, 2025).

What follows are binders tested against T1, lysozyme (Gallus gallus (Chicken)., UniProt P00698) (assay: other fluorescence titration; 20 nM TAMRA-labelled quenchbody in PBS/0.05% Tween-20 with 1-8000 nM antigen, 1 h at room temperature (legend: 60 min, 25 °C), 384-well plate, excitation 535 ± 20 nm, emission 585 ± 30 nm; fit to single site-specific binding with Hill slope; EC50 as a proxy for KD). Settings: both partners purified.
T1 construct: lysozyme, ~15 kDa on SDS-PAGE
T1 sequence (P00698 19-147): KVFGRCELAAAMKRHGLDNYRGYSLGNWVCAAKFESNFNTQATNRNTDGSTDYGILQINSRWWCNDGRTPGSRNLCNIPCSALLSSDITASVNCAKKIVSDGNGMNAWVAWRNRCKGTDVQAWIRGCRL

| EC50 | Binder |
| --- | --- |
| 7 nM | lysozyme-binding quenchbody (Qb-Lys), wild type (VHH, the labelled, eluted form stood in the fluorescence assays; also called lysozyme quenchbody; source: NEBExpress cell-free E. coli protein synthesis (IVTT); not shown: Cys-tag, N-terminal, kept) VHH: DVQLVESGGGSVQAGGSLRLSCAASGYIASINYLGWFRQAPGKEREGVAAVSPAGGTPYYADSVKGRFTVSLDNAENTVYLQMNSLKPEDTALYYCAAARQGWYIPLNSYGYNYWGQGTQVTVSS |

These binders were tested against T1, lysozyme (assay: pull-down; FLAG-tagged quenchbody from the crude IVTT mixture bound to anti-FLAG magnetic agarose beads, combined with 100 uL of 1 uM MBP or 10 uM lysozyme, 30 min, room temperature, 1200 rpm; 6 washes with PBS; eluted with 3x FLAG peptide; reducing SDS-PAGE; semi-quantitative comparison with the wild type). Settings: one partner purified.

| binding result | Binder |
| --- | --- |
| binds | lysozyme quenchbody (Qb-Lys) Y104W (VHH, as the VHH of m2 (nanobody chain of PDB 1ZVH in the cassette) with the stated change; source: NEBExpress cell-free E. coli protein synthesis (IVTT); not shown: Cys-tag, N-terminal, kept) VHH: DVQLVESGGGSVQAGGSLRLSCAASGYIASINYLGWFRQAPGKEREGVAAVSPAGGTPYYADSVKGRFTVSLDNAENTVYLQMNSLKPEDTALYYCAAARQGWWIPLNSYGYNYWGQGTQVTVSS |
| binds | lysozyme quenchbody (Qb-Lys) Y104W/Y110W (VHH, as the VHH of m2 (nanobody chain of PDB 1ZVH in the cassette) with the stated changes; Member of the 'single, pairwise, and triple Y27W, Y104W and Y110W mutants'; the combination is counted out from that phrase; also called pairwise mutant Y104W, Y110W; source: NEBExpress cell-free E. coli protein synthesis (IVTT); not shown: Cys-tag, N-terminal, kept) VHH: DVQLVESGGGSVQAGGSLRLSCAASGYIASINYLGWFRQAPGKEREGVAAVSPAGGTPYYADSVKGRFTVSLDNAENTVYLQMNSLKPEDTALYYCAAARQGWWIPLNSWGYNYWGQGTQVTVSS |
| binds | lysozyme quenchbody (Qb-Lys) Y27W/Y104W/Y110W (VHH, as the VHH of m2 (nanobody chain of PDB 1ZVH in the cassette) with the stated changes; also called triple mutant Y27W, Y104W, Y110W; source: NEBExpress cell-free E. coli protein synthesis (IVTT); captured on anti-FLAG magnetic beads from the crude IVTT mixture (pull-down)) VHH: DVQLVESGGGSVQAGGSLRLSCAASGWIASINYLGWFRQAPGKEREGVAAVSPAGGTPYYADSVKGRFTVSLDNAENTVYLQMNSLKPEDTALYYCAAARQGWWIPLNSWGYNYWGQGTQVTVSS |
| binds | lysozyme quenchbody (Qb-Lys) W103Y (VHH, as the VHH of m2 (nanobody chain of PDB 1ZVH in the cassette) with the stated change; source: NEBExpress cell-free E. coli protein synthesis (IVTT); not shown: Cys-tag, N-terminal, kept) VHH: DVQLVESGGGSVQAGGSLRLSCAASGYIASINYLGWFRQAPGKEREGVAAVSPAGGTPYYADSVKGRFTVSLDNAENTVYLQMNSLKPEDTALYYCAAARQGYYIPLNSYGYNYWGQGTQVTVSS |

Second part, the binder before the results:

| Binder | binding result |
| --- | --- |
| lysozyme quenchbody (Qb-Lys) Y27W/Y110W (VHH, as the VHH of m2 (nanobody chain of PDB 1ZVH in the cassette) with the stated changes; Member of the 'single, pairwise, and triple Y27W, Y104W and Y110W mutants'; the combination is counted out from that phrase; also called pairwise mutant Y27W, Y110W; source: NEBExpress cell-free E. coli protein synthesis (IVTT); not shown: Cys-tag, N-terminal, kept) VHH: DVQLVESGGGSVQAGGSLRLSCAASGWIASINYLGWFRQAPGKEREGVAAVSPAGGTPYYADSVKGRFTVSLDNAENTVYLQMNSLKPEDTALYYCAAARQGWYIPLNSWGYNYWGQGTQVTVSS | binds |
| lysozyme quenchbody (Qb-Lys) Y27W/Y104W (VHH, as the VHH of m2 (nanobody chain of PDB 1ZVH in the cassette) with the stated changes; Member of the 'single, pairwise, and triple Y27W, Y104W and Y110W mutants'; the combination is counted out from that phrase; also called pairwise mutant Y27W, Y104W; source: NEBExpress cell-free E. coli protein synthesis (IVTT); captured on anti-FLAG magnetic beads from the crude IVTT mixture (pull-down)) VHH: DVQLVESGGGSVQAGGSLRLSCAASGWIASINYLGWFRQAPGKEREGVAAVSPAGGTPYYADSVKGRFTVSLDNAENTVYLQMNSLKPEDTALYYCAAARQGWWIPLNSYGYNYWGQGTQVTVSS | binds |
| lysozyme quenchbody (Qb-Lys) Y27W (VHH, as the VHH of m2 (nanobody chain of PDB 1ZVH in the cassette) with the stated change; source: NEBExpress cell-free E. coli protein synthesis (IVTT); not shown: Cys-tag, N-terminal, kept) VHH: DVQLVESGGGSVQAGGSLRLSCAASGWIASINYLGWFRQAPGKEREGVAAVSPAGGTPYYADSVKGRFTVSLDNAENTVYLQMNSLKPEDTALYYCAAARQGWYIPLNSYGYNYWGQGTQVTVSS | binds |

What follows are binders tested against T1, lysozyme (assay: fluorescence intensity plate assay at one antigen concentration (fold-sense); 20 nM TAMRA-labelled quenchbody variants in PBS/0.05% Tween-20 with and without antigen (500 nM lysozyme or MBP in Fig. 3B and 3E; concentration not stated for Fig. 3C and 3F); fold-sense = fluorescence with antigen relative to 0 nM antigen). Settings: both partners purified.

| fold-sense (fluorescence with antigen relative to without) | Binder |
| --- | --- |
| 1.3 fold | lysozyme-binding quenchbody (Qb-Lys), wild type (VHH, the labelled, eluted form stood in the fluorescence assays; also called lysozyme quenchbody; source: NEBExpress cell-free E. coli protein synthesis (IVTT); not shown: Cys-tag, N-terminal, kept) VHH: DVQLVESGGGSVQAGGSLRLSCAASGYIASINYLGWFRQAPGKEREGVAAVSPAGGTPYYADSVKGRFTVSLDNAENTVYLQMNSLKPEDTALYYCAAARQGWYIPLNSYGYNYWGQGTQVTVSS |
| 1.7 fold | lysozyme quenchbody (Qb-Lys) Y110W (VHH, as the VHH of m2 (nanobody chain of PDB 1ZVH in the cassette) with the stated change; source: NEBExpress cell-free E. coli protein synthesis (IVTT); not shown: Cys-tag, N-terminal, kept) VHH: DVQLVESGGGSVQAGGSLRLSCAASGYIASINYLGWFRQAPGKEREGVAAVSPAGGTPYYADSVKGRFTVSLDNAENTVYLQMNSLKPEDTALYYCAAARQGWYIPLNSWGYNYWGQGTQVTVSS |
